The results in this text go back to the DeepSol protein solubility set.

The nature of the data set: soluble on expression in E. coli; label from the status in PepcDB or PDB records.
Turning to “MATATPVPPRMGSRAGGPTTPLSPTRLSRLQEKEELRELNDRLAVYIDKVRSLETENSALQLQVTEREEVRGRELTGLKALYETELADARRALDDTARERAKLQIELGKCKAEHDQLLLNYAKKESDLNGAQIKLREYEAALNSKDAALATALGDKKSLEGDLEDLKDQIAQLEASLAAAKKQLADETLLKVDLENRCQSLTEDLEFRKSMYEEEINETRRKHETRLVEVDSGRQIEYEYKLAQALHEMREQHDAQVRLYKEELEQTYHAKLENARLSSEMNTSTVNSAREELMESRMRIESLSSQLSNLQKESRACLERIQELEDLLAKEKDNSRRMLTDKEREMAEIRDQMQQQLNDYEQLLDVKLALDMEISAYRKLLQGEEERLKLSPSPSSRVTVSRASSSRSVRTTRGKRKRVDVEESEASSSVSISHSASATGNVCIEEIDVDGKFIRLKNTSEQDQPMGGWEMIRKIGDTSVSYKYTSRYVLKAGQTVTIWAANAGVTASPPTDLIWKNQNSWGTGEDVKVILKNSQGEEVAQRSTVFKTTIPEEEEEEEEAAGVVVEEELFHQQGTPRASNRSCAIM”, the “soluble on expression in E. coli” value is reported as “soluble”.
As to “SNAMSDTLYIKMDQAVEITKKQVTVGDVAKLQCKNKNITNRLKSMKLLEDTTKGKKRYIVSIMKIIEMADQTFQNVDIQNIGETECVVEFKTPKKDDGPM”, the “soluble on expression in E. coli” value is listed as “soluble”.
With “MSNEEARSAGDLRNTGLSLRHDRTWDYELDRIVDEVERKDAEKVGLQFPEGLKRRGPAVADDLRARLDDTRIMLSGQPCYGACDLDTYLMRRTDVFVHFGHSPMKESDSIIYVPLFSNVDVEPIMQEARDELHDGDVGLVTTAQHMNQFEEMRTWLEERGYTVHTRRGDDRLTNEGQVLGCNYASADIDADQVLYVGGGKFHPLGLAMEHPEKNVVIADPVNNAVSIADAEQFLKERYASVHKAMDAEQWGVIFCTKIGQGRFDQAEEIVENNDNAYLITMDEVTPDRLMNFDMDAFVNTGCPRITTDDGPQFHKPMLTPGEYEIAVGNKPLEDLSFDTFHGTWLEHHHHHH”, the “soluble on expression in E. coli” value is “not soluble”.
In the case of “MGSDKIHHHHHHMIILDNHFHVDPINGLFLEAVKQFHRAGGTHLVVVYKSAHDYGFGGMKGEDFMRAMDFHVELVEIINKETPVKAYAVVGVHPAEFDYLARARGIEYAKREVMKALEHAQRLCLDGKAIGIGEVGRPHYPVPEEIWEASIEIMKYAMALAKEADCAVQLHTESFDEEKFRELGRYVREVGIKPYRVVKHFSPPLVKVAEEVGIFPSIIASRKNIEEAIKQGTRFLMETDYIDDKRRPGAVLGPKTVPRRTKELLQKGILTEDDVYRIHVENPEKVYGIEL”, the “soluble on expression in E. coli” value is listed as “not soluble”.
In the case of “MEISTLLALSPLDGRYQQKVAALRPFFSEYALIRNRIHVEIEWFKALGNTPALTGASSLSTGAVVQLDQLVENFSVTDAEAVKSIETRTNHDVKAVEYWLKEKLTGDQETAAISE”, the “soluble on expression in E. coli” value was “not soluble”.
Under “VVTRIVILGGGPAGYEAALVAATSHPETTQVTVIDCDGIGGAAVLDDCVPSKTFIASTGLRTELRRAPHLGFHIDFDDAKISLPQIHARVKTLAAAQSADITAQLLSMGVQVIAGRGELIDSTPGLARHRIKATAADGSTSEHEADVVLVATGASPRILPSAQPDGERILTWRQLYDLDALPDHLIVVGSGVTGAEFVDAYTELGVPVTVVASQDHVLPYEDADAALVLEESFAERGVRLFKNARAASVTRTGAGVLVTMTDGRTVEGSHALMTIGSVPNTSGLGLERVGIQLGRGNYLTVDRVSRTLATGIYAAGDCTGLLPLASVAAMQGRIAMYHALGEGVSPIRLRTVAATVFTRPEIAAVGVPQSVIDAGSVAARTIMLPLRTNARAKMSEMRHGFVKIFCRRSTGVVIGGVVVAPIASELILPIAVAVQNRITVNELAQTLAVYPSLSGSITEAARRLMAHDDLDCTAAQDAAEQLALVPHHLPTSN” stands “soluble”.
Regarding “MGSDKIHHHHHHMKIILGIPDLKIPVWTFKQPLMINQLNWDRPSWENETWVDSGGYQIMVRGIKVEIEKVVEKYKILDATQYMSLDIPSIPCHKPSELNYKYFEYLYTVFDKKIVPVIHAYDPESIKKSIDFYSQYTDLVAFGGIVPPTLNKSGNKKLAVAIYYLVRKLWKGKIHVLGAGSPFMRKVYFNADSVDTSTYRVKGIHGMVIIPGKGERYVGNRKIVWGTKRASEEELEILLSFLDKTHYPFQIRFDNWIDRSLINAWVLLNSEYESNNPLIRYSKKLDTFAEDEIEEEVNELCM”, the “soluble on expression in E. coli” value is “not soluble”.
With “MAGDPMSATETITTNARVLGADPLVKDGFGEEDMLTLVLPYIKTAREGVLRLGELLETYGTYESNGIAFADTEEIWWLKTIGGHNWIARRVPDDAYVTNPNQLGIDHYEFENPDDYLASPDIRDFINKHHLDLTYSNEHFNPRYAFGSQRDKDHHYNTPRARAMLEHHHHHH”, the “soluble on expression in E. coli” value was “not soluble”.
Consider “MGSDKIHHHHHHMQNFVLTVSCKSTRGVVAALSGYLAEQGCNIADSSQFDDLDTGKFFMRTSFISEERVGLAALEEGLKPIASKFEMETALHEQSERMKVLLMVSRFGHCLNDLLYRWKIGALPIDIVGVVSNHFDYQKVVVNHDIPFHHIKVTKENKPKAEAQLMDVVEQTGAELIVLARYMQVLSDALCKKMSGKIINIHHSFLPSFKGANPYKQAYERGVKLIGATAHYVTADLDEGPIIEQDIARITHAQSAEDYVSIGRDVESQVLARAVHAHIHHRCFINGNRVVVFPPSPGSYASERMG”, for which the “soluble on expression in E. coli” value is “not soluble”.
Under “MAHHHHHHMLSSAAPKRYKFDQRGNLTEVNFLACKSVVPPRTYVHSKNSLTCSTSVIPELHQTAHHCKGRSGANGTSGTNGKSGSTSKMAMSQENIFEAEAISTNAYAHGGGPSSLHSMNMVHSVSSVGSGGNDPSQYVPNQCGNMNMMGTGLSGHEMNNNAPLLFVDGAPYCADDAGQGIDPGVVAVSNALFAYNSAFQSIPIKTSPNVFRRRTKGEGNSEWCNAFVTRVDPCECGDPDEQFKPYEVTKYYDDGQVKTVFNFDQDSAPQEQLM” stands “soluble”; under “MGSDKIHHHHHHMNLPTAHPLIDEATLTIVVCHILDSKTATLGEWHSEAIAHHIINNVTAGLQRITGIANNGSEQLSWSVILKILHLQPENAGSIFNSSQDPTHWNYWQREALIYTSGMLDNLTGDLVAPRCFGITEPSANVVWLWLEDIQGSSGSTWTMERFGLAARHLGYLQGSYVMAQSLPYEPWLSRGWHRAWVSNIDNTALEAWREPAVWQHPLLKEIFSPDIGDRVMDLWSDRHILLDAVDKAPHTLCHFDITPNNLFSRHNPDGNDQTVLIDWSFVGYGVLGEDIINLVLDSVFLLFVNGSSLIPLEKLVLEGYLTGLRSAGWNGDERIVRFTYAALAALHFGLIAGRLLKLVQNESRHSWLEQRFGRTFDEIITSRAIAITHGLELADEARLLLPSLFVIN”, “not soluble”.
On to “MNIVITGGTGLIGRHLIPRLLELGHQITVVTRNPQKASSVLGPRVTLWQGLADQSNLNGVDAVINLAGEPIADKRWTHEQKERLCQSRWNITQKLVDLINASDTPPSVLISGSATGYYGDLGEVVVTEEEPPHNEFTHKLCARWEEIACRAQSDKTRVCLLRTGVVLAPDGGILGKMLPPFRLGLGGPIGSGRQYLAWIHIDDMVNGILWLLDNELRGPFNMVSPYPVRNEQFAHALGHALHRPAILRVPATAIRLLMGESSVLVLGGQRALPKRLEEAGFAFRWYDLEEALADVVR”, for which the “soluble on expression in E. coli” value is reported as “soluble”.
In the case of “MKLAKLIPKRFFIRSKDRSTVSKSPTAFSFGSASSSSGQDCKNSGGDGGGGSVTPTSILPEVPSPYSYVEILQAFKLIDRDNDGAVSRHDLESLLSRLGPDPLTEEEINVMLKEVDCDGDGTIRLEELASRVVSLDPARDSTELKETFEFFDADRDGLISADELLRVFSTIGDERCTLDDCKRMIADVDEDGDGFVCFTEFSRMMDLQR”, the “soluble on expression in E. coli” value is recorded as “soluble”.
For the sequence “GHMAKAYKQAGVDIEAGYQAVALMKEHVQKTMRPEVLGGIGGFGGLFDLSALGYRQPVLISGTDGVGTKLKLAFLLDRHDTIGIDCVAMCVNDIIVQGAEPLFFLDYIACGKAVPEKIAAIVKGVADGCVEAGCALIGGETAEMPGMYDEDEYDLAGFAVGVAEKERLITGETIQAGDALVGLPSSGLHSNGYSLVRRIVFEQAKLSLDEIYEPLDVPLGEELLKPTRIYAKLLRSVRERFTIKGMAHITGGGLIENIPRMLPPGIGARIQLGSWPILPIFDFLREKGSLEEEEMFSVFNMGIGLVLAVSPETAAPLVEWLSERGEPAYIIGEVAKGAGVSFAGGGRA”, the “soluble on expression in E. coli” value is recorded as “soluble”.
Take “MSTPSHLNAQPLVWGHGPRTFEVFLEPTCPYSVRAFNKLDDLLDEVGADNVTIKIRLQSQPWHLFSGVIVRCILAASTLPHGREQAHKVMQAVADHREEFEFTDHCSGPNMNATPQQIIERIERYSHVLLGAAFARPELQDVIKWHSKYARQNGIHVSPTFMVNGLVQPDLGSGDDVSVWAARIMA”: the “soluble on expression in E. coli” value is on record as “not soluble”.
Turning to “MSLSRVEETGLGFVGTFESGFTQGTVGVGVDAIGMLGLKLDSGKGRAGTGLFPTGSDGRSQDDYSKGGGAVKFRISDTVLKVGDQFTALPVFATDDSRLLPEIAQGTLITSNEIEGLTLHAGHFTSLTAQEQTNRDSFGLKEANVVGGTYAFTDNLSTSLYYSKVEDYWRKYYANVNWALPISDNQGLVFDFNIYDTKSEGSAEYRAFDGDKLDNRAFSLSGAYNIGAHTFTLAYQKVTGDGDYGYGIDGGGTIFLANSVARSDFNAEDEKSWQARYDLNFAEYGIPGLTFMTRYVRGSDANVAGTSNGKEWERDVDIKYVLQEGPAKDLSFRVRQATYRSSDGVYYDSPSIDELRLIVEYPLNILEGHHHHHH”, the “soluble on expression in E. coli” value was “soluble”.
“MALTVSLLDKLIDSDPTTREEKDFPVSQQHMLNGLLRDLESMLNSRIGWKNIHEDFLEVRYSILNYGLPDFSSMPYSSQDGQSQLCDIVYEAIREFEPRLRNPHVQISDEKNAIDRTLRLEISATCLIDNDIHELRFNSEVEPVNLGMKLSRAK”: the “soluble on expression in E. coli” value was “not soluble”.
Turning to “GPGSMLRRLFTRMAPRAKNHEELMKMLREGSQVGKMAASEESGVTFRDIRTVPIGESNEAKRRRLLYQSTYRGMVEMDIILGAFARQNIETLSAPQLEEYDAVLRHFDNDLYKWLVMDVEAPAEVAQIPVFQSLHSFVRDEREKLLKCAS”, the “soluble on expression in E. coli” value was “soluble”.
With “RKVAAKMMQHQLEKHLKALNFDNPLFWTSLPTAADVCNAMNKRGLIYYCGDDFGALAGVDHQTVMEHERTLVDSADFILAASDKLAARFPDNKTTTLPHGVDFSLFSTPAEKASDLPNNGRKILGFYGSLSDWLDYRLIDQVAQHAPDWDLVFIGPNEFAHNPLPQRDNVHYLGPRAHHLLPSYSQHWDASWLPFVDNAQIKACNPLKLLE” the entry was “not soluble”.
Under “NSSGVNRVVGNNLDDLALPKLAKDQTNPMTMEELTTRFLRSDSATFDGTVVEVQGFASAAADGTWRLSRYKIYCCAADAMAYTATLETSTSMSSDQWYRVRGVVRVSSAHNPQFPMIEVHNLEAIDTPTEPYL” stands “not soluble”; under “MGSDKIHHHHHHMIKVALLHFGFEDYTIELANSLSKYVDLTLINPKKLSDVCGDAFDPSIRVVSFKKPRIRDPRNLLSMNAMMRIIKDIQPDVLHVQETNDPWYDWTLLLNKMPPLVTTIHDVFRHPGDKVAVFGSEYTRRIAFYRSQQLIVHTHQLKKILIEQFNLPEGRVNVIPHGELGSLYQHRGDRSNQPRDPNTLLFFGRIWPYKGLKYLLEAMPLIAECVPEVKLIIAGRGENIKEYFPNGYDENRYEIINRLIPLEEVSNLFQRSTVTVLPYIEASQSGVAALSYGMGTLVVASDVGGLSEIVQHKKDGLLVPPRDVRALADAIICLLSDRDLQQKMQTAALARCQQDLNWSNIAAQTVEVYQKTMKPIHQ”, “not soluble”.
